Tested on: peptide library, one residue held at a place counted from the S/T acceptor
Test: relative phosphorylation of the sub-library (ratio to the mean residue at this position); higher = residue favoured
Outline: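 Purified recombinant kinases were reacted in 384-well plates with biotinylated degenerate peptide sub-libraries, each having one residue fixed at one position around a central Ser/Thr. The reaction mix contained 50 μM peptide plus 50 μM ATP spiked with γ-32P-ATP and ran for 90 min under kinase-specific conditions. Relative sub-library phosphorylation, taken from densitometry of phosphorimaged streptavidin membrane spots, is a ratio to the mean residue at that position.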

Sequence of MYLK, construct: aa1425-1771, human (Q15746 1425-1771, looked up): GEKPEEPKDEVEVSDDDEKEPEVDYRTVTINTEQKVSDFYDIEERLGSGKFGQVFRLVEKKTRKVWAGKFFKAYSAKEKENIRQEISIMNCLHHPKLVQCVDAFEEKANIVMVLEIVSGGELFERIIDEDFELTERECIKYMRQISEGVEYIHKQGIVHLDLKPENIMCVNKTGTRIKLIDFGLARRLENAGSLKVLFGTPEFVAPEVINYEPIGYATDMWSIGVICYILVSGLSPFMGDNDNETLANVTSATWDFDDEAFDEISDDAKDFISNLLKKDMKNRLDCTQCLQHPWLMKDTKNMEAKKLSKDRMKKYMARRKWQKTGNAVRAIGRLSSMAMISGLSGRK
Sequence of CDK17, construct: Full length, human (Q00537 whole entry, looked up): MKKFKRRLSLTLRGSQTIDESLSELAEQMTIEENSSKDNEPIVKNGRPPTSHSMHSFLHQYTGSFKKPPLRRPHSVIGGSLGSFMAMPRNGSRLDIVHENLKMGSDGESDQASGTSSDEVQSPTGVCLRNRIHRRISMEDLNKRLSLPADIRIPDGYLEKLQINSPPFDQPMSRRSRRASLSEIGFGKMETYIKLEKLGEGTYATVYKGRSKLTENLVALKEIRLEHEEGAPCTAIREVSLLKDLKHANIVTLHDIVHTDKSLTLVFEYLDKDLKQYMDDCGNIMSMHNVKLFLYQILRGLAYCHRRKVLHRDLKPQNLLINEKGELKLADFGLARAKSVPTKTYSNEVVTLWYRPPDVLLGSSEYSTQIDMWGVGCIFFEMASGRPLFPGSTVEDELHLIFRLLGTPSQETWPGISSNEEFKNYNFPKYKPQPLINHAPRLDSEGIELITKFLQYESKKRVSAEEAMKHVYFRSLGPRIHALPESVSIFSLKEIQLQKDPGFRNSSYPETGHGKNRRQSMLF

MYLK, construct: aa1425-1771, human (from UniProt Q15746)
relative phosphorylation
Settings | at +1 | at +2 | at +3 | at +4 | at -1 | at -2 | at -3 | at -4 | at -5
A fixed | 0.785 | 0.75 | 0.611 | 0.755 | 0.803 | 0.95 | 0.781 | 0.743 | 0.704
D fixed | 0.578 | 0.935 | 0.68 | 0.835 | 0.963 | 0.38 | 0.392 | 0.516 | 0.472
E fixed | 0.631 | 0.874 | 0.625 | 0.747 | 0.696 | 0.378 | 0.403 | 0.586 | 0.483
F fixed | 0.917 | 1.27 | 1.37 | 1.15 | 0.87 | 0.584 | 0.653 | 1.45 | 1.21
G fixed | 0.781 | 0.599 | 0.713 | 0.906 | 0.933 | 0.631 | 0.586 | 0.819 | 0.737
H fixed | 0.706 | 0.914 | 0.744 | 1.28 | 1.06 | 1.01 | 0.876 | 0.94 | 0.916
I fixed | 1.49 | 0.99 | 2.08 | 0.946 | 0.789 | 0.499 | 0.7 | 1.06 | 1.06
K fixed | 1.36 | 1.19 | 1.03 | 1.18 | 1.27 | 1.93 | 1.63 | 1.41 | 1.21
L fixed | 1.01 | 1.09 | 1.65 | 0.952 | 1.13 | 0.505 | 0.619 | 0.898 | 1.08
M fixed | 1.51 | 1.26 | 1.21 | 0.946 | 1.17 | 0.607 | 0.66 | 1.05 | 1.04
N fixed | 0.873 | 0.86 | 0.771 | 1.03 | 1.55 | 0.834 | 0.591 | 0.723 | 0.677
P fixed | 0.615 | 0.675 | 0.637 | 1.01 | 0.896 | 0.465 | 0.556 | 0.651 | 0.722
Q fixed | 1.32 | 1.02 | 0.718 | 0.987 | 1.08 | 1.07 | 0.777 | 0.895 | 0.794
R fixed | 1.59 | 1.56 | 1.06 | 1.22 | 1.49 | 5.45 | 5.91 | 1.86 | 1.89
V fixed | 1.34 | 0.93 | 1.14 | 0.814 | 0.791 | 0.521 | 0.566 | 1 | 0.882
W fixed | 0.676 | 0.749 | 0.907 | 1.27 | 0.636 | 0.594 | 0.611 | 1.03 | 0.875
Y fixed | 0.819 | 1.33 | 1.05 | 0.96 | 0.874 | 0.587 | 0.69 | 1.35 | 2.24
pThr fixed | 1.48 | 1.39 | 0.785 | 1.03 | 0.744 | 0.528 | 0.543 | 0.678 | 0.667
pTyr fixed | 0.795 | 1.19 | 0.925 | 0.965 | 1.07 | 0.51 | 0.784 | 0.669 | 0.772

CDK17, construct: Full length, human (from UniProt Q00537)
relative phosphorylation
Settings | at +1 | at +2 | at +3 | at +4 | at -1 | at -2 | at -3 | at -4 | at -5
A fixed | 0.203 | 0.683 | 0.739 | 1 | 0.979 | 1.25 | 0.977 | 0.99 | 1.07
D fixed | 0.116 | 0.603 | 0.323 | 0.54 | 0.654 | 0.496 | 0.806 | 0.95 | 0.96
E fixed | 0.109 | 0.412 | 0.294 | 0.427 | 0.49 | 0.585 | 0.902 | 1.02 | 0.845
F fixed | 0.152 | 0.697 | 0.959 | 0.828 | 0.644 | 0.742 | 0.666 | 0.802 | 0.856
G fixed | 0.781 | 0.865 | 0.862 | 1.86 | 1.93 | 0.898 | 1.62 | 1.19 | 1.01
H fixed | 0.152 | 1.16 | 0.66 | 1.14 | 0.801 | 0.831 | 0.907 | 0.98 | 1.18
I fixed | 0.157 | 0.826 | 1.48 | 0.823 | 0.251 | 0.872 | 0.68 | 0.836 | 0.806
K fixed | 0.236 | 2.09 | 0.904 | 1.32 | 1.61 | 0.701 | 0.945 | 1.34 | 1.49
L fixed | 0.17 | 1.03 | 2.01 | 0.797 | 0.689 | 0.962 | 0.675 | 0.779 | 0.98
M fixed | 0.17 | 1.02 | 1.99 | 0.99 | 1.06 | 1.13 | 0.881 | 0.822 | 0.861
N fixed | 0.174 | 1.15 | 0.854 | 0.987 | 1.03 | 1 | 1.21 | 1.37 | 1.02
P fixed | 13.6 | 0.758 | 1.66 | 0.889 | 1.69 | 3.2 | 2.12 | 1.41 | 1.06
Q fixed | 0.195 | 1 | 0.962 | 0.962 | 1.28 | 0.893 | 1.03 | 0.933 | 0.834
R fixed | 0.191 | 1.92 | 0.783 | 1.52 | 1.51 | 0.875 | 1.13 | 0.924 | 1.01
V fixed | 0.222 | 0.863 | 1.07 | 0.77 | 0.403 | 0.859 | 0.782 | 0.605 | 0.698
W fixed | 0.181 | 0.879 | 0.791 | 1.09 | 0.999 | 0.887 | 0.855 | 1.14 | 1.19
Y fixed | 0.149 | 1.05 | 0.65 | 1.06 | 0.97 | 0.824 | 0.818 | 0.907 | 1.12
pThr fixed | 0.514 | 0.699 | 0.939 | 0.451 | 0.438 | 0.909 | 1.06 | 1.04 | 0.832
pTyr fixed | 0.707 | 0.491 | 0.903 | 0.492 | 0.452 | 0.788 | 0.883 | 0.7 | 0.88

From the supplement of paper PMC9876800
